What was measured:
[1] = target: Tie2 receptor on HEL cells or HUVECs (human, UniProt Q02763 23-1124); assay: cell-based or functional assay
[2] = target: T1, recombinant Tie2 extracellular domain-Fc fusion (UniProt Q02763 23-748); assay: BIAcore SPR; mAb captured on rabbit anti-mouse IgG Fc, Tie2-Fc injected
T1 construct: extracellular domain; also called Tie2-Fc; Tie2 receptor-Fc fusion; not shown: It is probably human IgG Fc: human IgG1 was added to remove anti-Fc mAbs, and the fusion was ca
Procedure: The affinity of the purified mAbs was measured in the BIAcore. Using a flow rate of 10 ul/min, the mAb (diluted in HBS buffer) was injected over a rabbit anti-mouse IgG Fc surface, followed by buffer flow and the RU recorded. Tie2-Fc diluted in HBS buffer was then injected for 120s followed by buffer flow for 240s and regeneration of the sensor chip surface with an injection of 15 ul 0.1 M phosphoric acid. BIAcore software was used for association and dissociation-phase analysis. The murine monoclonal antibodies bound to soluble monomeric Tie2 receptor. The on-rates ($kass$) and off-rates ($kdiss$) were calculated.

T1 sequence (Q02763 23-748): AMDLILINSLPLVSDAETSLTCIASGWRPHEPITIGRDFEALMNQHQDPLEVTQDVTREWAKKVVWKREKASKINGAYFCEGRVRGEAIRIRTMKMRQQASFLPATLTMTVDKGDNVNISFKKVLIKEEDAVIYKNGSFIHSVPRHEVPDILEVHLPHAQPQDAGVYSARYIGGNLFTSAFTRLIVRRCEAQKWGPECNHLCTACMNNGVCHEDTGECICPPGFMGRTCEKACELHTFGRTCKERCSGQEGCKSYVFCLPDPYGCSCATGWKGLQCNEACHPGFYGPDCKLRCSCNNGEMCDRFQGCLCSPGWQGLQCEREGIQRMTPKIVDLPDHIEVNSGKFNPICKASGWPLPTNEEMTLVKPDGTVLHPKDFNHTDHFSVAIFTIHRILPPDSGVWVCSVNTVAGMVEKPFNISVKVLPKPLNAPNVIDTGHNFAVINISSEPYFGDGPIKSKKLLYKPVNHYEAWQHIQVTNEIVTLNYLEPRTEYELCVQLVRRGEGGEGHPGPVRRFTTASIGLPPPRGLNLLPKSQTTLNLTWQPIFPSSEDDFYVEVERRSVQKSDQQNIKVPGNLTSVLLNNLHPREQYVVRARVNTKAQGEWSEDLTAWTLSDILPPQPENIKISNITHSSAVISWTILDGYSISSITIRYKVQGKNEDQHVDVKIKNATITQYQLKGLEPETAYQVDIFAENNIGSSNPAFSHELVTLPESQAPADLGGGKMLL
Chain of Tie2 receptor on HEL cells or HUVECs (Q02763 23-1124): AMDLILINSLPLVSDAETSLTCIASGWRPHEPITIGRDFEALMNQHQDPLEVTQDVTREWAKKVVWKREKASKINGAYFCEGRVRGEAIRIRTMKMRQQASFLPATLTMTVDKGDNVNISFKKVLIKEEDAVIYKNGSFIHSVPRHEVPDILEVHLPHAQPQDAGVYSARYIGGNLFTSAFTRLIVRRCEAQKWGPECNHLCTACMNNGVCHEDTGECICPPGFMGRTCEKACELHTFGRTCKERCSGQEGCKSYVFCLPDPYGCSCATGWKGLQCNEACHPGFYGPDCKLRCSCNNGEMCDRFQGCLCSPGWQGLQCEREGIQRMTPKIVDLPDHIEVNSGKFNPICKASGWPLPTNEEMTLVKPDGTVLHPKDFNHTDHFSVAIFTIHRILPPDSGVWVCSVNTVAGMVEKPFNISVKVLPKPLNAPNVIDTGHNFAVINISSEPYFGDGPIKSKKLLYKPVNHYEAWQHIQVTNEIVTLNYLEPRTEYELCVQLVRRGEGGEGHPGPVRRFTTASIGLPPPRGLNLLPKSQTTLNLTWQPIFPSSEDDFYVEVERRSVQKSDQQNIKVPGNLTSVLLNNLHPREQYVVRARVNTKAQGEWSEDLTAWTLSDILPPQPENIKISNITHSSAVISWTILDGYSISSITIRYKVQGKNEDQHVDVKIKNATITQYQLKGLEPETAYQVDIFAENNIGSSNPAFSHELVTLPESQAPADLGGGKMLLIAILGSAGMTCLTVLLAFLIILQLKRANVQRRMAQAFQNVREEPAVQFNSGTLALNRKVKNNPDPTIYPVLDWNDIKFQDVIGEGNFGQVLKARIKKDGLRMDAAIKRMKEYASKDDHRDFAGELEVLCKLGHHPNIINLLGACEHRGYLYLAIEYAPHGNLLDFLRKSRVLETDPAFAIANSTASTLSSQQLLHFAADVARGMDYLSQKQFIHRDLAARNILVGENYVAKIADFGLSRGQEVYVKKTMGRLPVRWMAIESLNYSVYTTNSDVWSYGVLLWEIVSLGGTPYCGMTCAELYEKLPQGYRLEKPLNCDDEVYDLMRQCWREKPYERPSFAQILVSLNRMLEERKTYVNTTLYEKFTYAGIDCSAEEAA

Tie2 receptor tyrosine phosphorylation (immunoprecipitation and anti-phosphotyrosine Western blot, ratio to Tie-2 staining) [1]	Kd [2]	Binder
> 2 fold over basal	0.24 nM	murine monoclonal antibody 15B8 (antibody, V domains shown, Constant regions are mouse IgG heavy and kappa light, going by the PCR primers; also called mAb 15B8; mAb 1 B 8) VH: QVQLQQPGVVLVMPGASVKLSCKASGYTFASYWMHWVKQRPGQGLEWIGEIDPSDSYRNYNQKFKGKATLTVDKSSSTVNMQLSSLTSEDSAVYYCAKTSGIGRAMDYWGQGTSVTVSS VL: DIQMIQSPASLSASVGETVTITCRASENIYSFVTWYQQKQGKSPQLLVFNAKNLVEGVPSSFSGSGSGTQFSLKIDSLQPEDFGTYYCQHHYSIPYTFGGGTKLEMR
–	3.1 nM	murine monoclonal antibody 13H10 (antibody, V domains shown, Constant regions are mouse IgG heavy and kappa light, going by the PCR primers; also called mAb 13H10; mAb 13H 10) VH: QIQLVQSGPELKKPGETVKISCKASGYTFTDFSIHWVKQAPGKGLKWMGWINTETGETTYAEDFKGRFAFSLETSASTAYLQINNLKNEDTATYFCSRRYDYDTWFAYWGQGTLVTVS VL: DIVMTQAALSVPVTPGESVSISCRSSSSLLHRNGNTYLYWFLQRPGQSPQLLIYRMSNLASGVPDRFSGSGSGTAFTLRISRVEAEDVGVYYCMQRLEYPFTFGGGTKLEIKR

Reference: patent US6365154 (GlaxoSmithKline, dated 2002)
